According to US20260317429 (published 2026):
Numbering of substitutions follows the chain as printed. Read-outs that look alike come from different tables or passages of the source. Values belong to the binder of their own block, whether it stands above or below them.

What was measured:
[1] = molecular target: T1, FGFR2IIIb-Fc (human, UniProt P21802); assay: competition ELISA, FGF7
[2] = molecular target: T2, FGFR2IIIb-his (ECD) (human); assay: SPR
T2 chain: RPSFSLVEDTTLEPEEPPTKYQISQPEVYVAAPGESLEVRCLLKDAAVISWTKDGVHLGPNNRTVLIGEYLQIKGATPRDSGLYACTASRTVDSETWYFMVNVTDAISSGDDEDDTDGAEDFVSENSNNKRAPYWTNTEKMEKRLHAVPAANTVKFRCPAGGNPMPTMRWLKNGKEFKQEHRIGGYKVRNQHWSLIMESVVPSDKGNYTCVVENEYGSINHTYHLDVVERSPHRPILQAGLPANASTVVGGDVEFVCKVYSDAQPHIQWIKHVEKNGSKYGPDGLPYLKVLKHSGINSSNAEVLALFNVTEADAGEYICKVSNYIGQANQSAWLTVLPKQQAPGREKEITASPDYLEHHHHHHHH

[3] = molecular target: T2, FGFR2IIIb-his (ECD); assay: ELISA
[4] = molecular target: T1, FGFR2IIIb-Fc; assay: competition ELISA, FGF7; remark: listed apart in the source
[5] = molecular target: T3, FGFR2IIIb on cells (human, UniProt P21802); assay: FACS, CHO-FGFR2IIIb
Target sequence in this assay (P21802 22-377): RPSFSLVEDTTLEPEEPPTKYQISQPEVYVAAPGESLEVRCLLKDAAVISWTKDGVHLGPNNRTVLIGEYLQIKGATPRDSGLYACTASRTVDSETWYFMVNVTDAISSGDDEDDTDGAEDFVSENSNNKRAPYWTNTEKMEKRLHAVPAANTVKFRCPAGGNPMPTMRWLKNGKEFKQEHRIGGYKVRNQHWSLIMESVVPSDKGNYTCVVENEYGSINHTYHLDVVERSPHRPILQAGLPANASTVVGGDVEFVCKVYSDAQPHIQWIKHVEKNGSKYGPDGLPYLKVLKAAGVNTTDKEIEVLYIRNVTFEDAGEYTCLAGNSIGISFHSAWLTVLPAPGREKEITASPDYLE

[6] = molecular target: T3, FGFR2IIIb on cells; assay: FACS, CHO-FGFR2IIIb; remark: listed apart in the source
[7] = molecular target: T1, FGFR2IIIb-Fc; assay: competition ELISA, FGF10
[8] = molecular target: T3, FGFR2IIIb on cells; assay: FACS, SNU-16
[9] = molecular target: T2, FGFR2IIIb-his (ECD); assay: ELISA
[10] = molecular target: T1, FGFR2IIIb-Fc; assay: competition ELISA, FGF1
[11] = molecular target: T3, FGFR2IIIb on cells; assay: FACS, SNU-16; remark: listed apart in the source
Target sequence in this assay (P21802 22-377): as above

[12] = molecular target: T1, FGFR2IIIb-Fc; assay: competition ELISA, FGF1; remark: listed apart in the source
[13] = molecular target: T1, FGFR2IIIb-Fc; assay: competition ELISA, FGF10; remark: listed apart in the source
[14] = molecular target: FGFR2IIIc-his (ECD) (human); assay: ELISA
[15] = molecular target: T2, FGFR2IIIb-his (ECD); assay: ELISA
[16] = molecular target: T1, FGFR2IIIb-Fc; assay: competition ELISA, FGF7; remark: listed apart in the source
[17] = molecular target: T1, FGFR2IIIb-Fc; assay: competition ELISA, FGF10; remark: listed apart in the source
[18] = molecular target: T1, FGFR2IIIb-Fc; assay: competition ELISA, FGF1; remark: listed apart in the source
Target sequence in this assay (P21802 22-377): as above

[19] = molecular target: T1, FGFR2IIIb-Fc; assay: competition ELISA, FGF10; remark: listed apart in the source
Target sequence in this assay (P21802 22-377): as above

[20] = molecular target: T4, mouse FGFR2IIIb (mouse, UniProt P21803); assay: ELISA
T4 chain: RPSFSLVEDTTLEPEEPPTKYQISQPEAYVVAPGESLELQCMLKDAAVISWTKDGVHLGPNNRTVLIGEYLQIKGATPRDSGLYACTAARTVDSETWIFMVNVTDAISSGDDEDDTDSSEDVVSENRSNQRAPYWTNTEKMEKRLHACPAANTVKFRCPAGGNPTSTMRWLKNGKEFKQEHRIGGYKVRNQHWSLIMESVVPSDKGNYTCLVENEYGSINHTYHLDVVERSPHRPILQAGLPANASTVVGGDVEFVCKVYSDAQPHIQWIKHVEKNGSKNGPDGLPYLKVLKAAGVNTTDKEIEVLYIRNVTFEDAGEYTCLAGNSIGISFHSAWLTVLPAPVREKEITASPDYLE

IC50 [1]: 0.694 µg/mL | Kd [2]: 81.3 nM | EC50 [3]: 0.048 µg/mL | IC50 [4]: 0.603 µg/mL | EC50 [5]: 0.342 µg/mL | EC50 [6]: 1.01 µg/mL | IC50 [7]: 0.745 µg/mL | EC50 [8]: 1.64 µg/mL | EC50 [9]: 0.0404 µg/mL | IC50 [10]: 0.692 µg/mL | EC50 [11]: 0.74 µg/mL | IC50 [12]: 0.904 µg/mL | IC50 [13]: 0.84 µg/mL
B1: III-0 (antibody, V domains shown)
VH: QVQLQQPGAELVRPGASVKMSCKASGYTFANYNMHWVKQTPRQGLEWIGAIYPGNGDTSYNQKFKGKATLTADKSSSTAYMQLSSLTSEDSAVYYCARGDFGYWGQGTTLTVSS
VL: DIVMTQSHKFMSTSVGDRVTITCKASQDVNIDVAWYQQKPGQSPKLLIYSASYRYTGVPDRFTGSGSGTDFTFTISSVQAEDLAVYYCQQHYSTPYTFGGGTKLEIK

binding result [14]: no binding | EC50 [15]: 0.05 µg/mL | IC50 [16]: 0.417 µg/mL | IC50 [17]: 0.545 µg/mL
B2: 27E9A11 (antibody, V domains shown)
VH: B1 VH
VL: B1 VL

Kd [2]: 1.24 nM | EC50 [3]: 0.051 µg/mL | EC50 [5]: 0.19 µg/mL | IC50 [18]: 1.18 µg/mL | EC50 [11]: 0.319 µg/mL | IC50 [19]: 0.976 µg/mL
B3: III-11 (antibody, V domains shown)
VH: QVQLVQSGAEVKKPGSSVKVSCKASGYTFAIYNMHWVRQAPGQGLEWIGAIYPDNGDTFYNQKFKGKATLTADKSTSTAYMELSSLRSEDTAVYYCARGDFGYWGQGTLVTVSS
VL: DIVMTQSPSSLSASVGDRVTITCKASQDVNIDPAWYQQKPGKAPKLLIYLASYRYTGVPSRFSGSGSGTDFTFTISSLQPEDFATYYCQQHYSTPYTFGQGTKLEIK

EC50 [20]: 0.127 µg/mL | Kd [2]: 68.1 nM | EC50 [3]: 0.052 µg/mL | IC50 [4]: 0.565 µg/mL | EC50 [5]: 0.257 µg/mL | IC50 [7]: 0.724 µg/mL | IC50 [10]: 0.581 µg/mL | EC50 [11]: 0.471 µg/mL
B4: III-10 (antibody, V domains shown)
VH: B3 VH with I31N, D54G, F59S
VL: B3 VL with P33V, L50S

Kd [2]: 1.04 nM | EC50 [3]: 0.042 µg/mL | EC50 [5]: 0.26 µg/mL | IC50 [18]: 0.941 µg/mL | EC50 [11]: 0.378 µg/mL | IC50 [19]: 0.805 µg/mL
B5: III-15 (antibody, V domains shown)
VH: B3 VH
VL: B3 VL with P33V, H91T

Kd [2]: 1.23 nM | IC50 [18]: 0.966 µg/mL | IC50 [19]: 0.905 µg/mL
B6: III-13 (antibody, V domains shown)
VH: B3 VH with F59S
VL: B3 VL with P33V, H91T

Kd [2]: 1.26 nM | EC50 [3]: 0.058 µg/mL | EC50 [5]: 0.263 µg/mL | IC50 [18]: 0.974 µg/mL | EC50 [11]: 0.526 µg/mL | IC50 [19]: 0.937 µg/mL
B7: III-14 (antibody, V domains shown)
VH: B3 VH with D54G
VL: B3 VL with P33V, H91T

Kd [2]: 1.32 nM | IC50 [18]: 1.08 µg/mL | IC50 [19]: 0.999 µg/mL
B8: III-12 (antibody, V domains shown)
VH: B3 VH with I31N, F59S
VL: B3 VL with P33V, H91T
